Results on one molecule are retold here after publication PMC2867299 (The Journal of Cell Biology, 2010).

The assay concerns the target T1, GST-Myo4p-L-GT (Myo4p linker and globular tail, from residue 1042) (S. cerevisiae, UniProt P32492 1042-1471).
T1 sequence: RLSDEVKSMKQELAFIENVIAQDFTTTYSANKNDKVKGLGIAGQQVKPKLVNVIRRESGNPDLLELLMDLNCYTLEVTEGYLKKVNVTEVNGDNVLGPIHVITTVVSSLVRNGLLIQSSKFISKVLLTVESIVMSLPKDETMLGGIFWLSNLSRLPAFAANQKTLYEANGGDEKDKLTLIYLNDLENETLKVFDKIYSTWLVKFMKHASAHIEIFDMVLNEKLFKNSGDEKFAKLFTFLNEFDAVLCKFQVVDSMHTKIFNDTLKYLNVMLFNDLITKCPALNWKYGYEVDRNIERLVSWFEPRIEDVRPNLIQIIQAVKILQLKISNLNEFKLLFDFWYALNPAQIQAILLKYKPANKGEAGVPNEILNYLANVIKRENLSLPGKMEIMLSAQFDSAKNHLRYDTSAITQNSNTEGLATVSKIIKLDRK
Nature of the assay: pull-down.

B1: His-She3p-N (N-terminal half of She3p, aa 1-234) (domain or fragment)
chain: MSDQDNTQTSSSKLAPHHNIFMANLESSPTKDRNTSSQNASSSRVIESLHDQIDMLTKTNLQLTTQSQNLLSKLELAQSKESKLLENLNLLKNENENLNSIFERKNKKLKELEKDYSELSNRYNEQKEKMDQLSKLAKNSSAIEQSCSEKLQNMEVNYNSLLESQNLYRDHYSDEISKLNEKIGLLELELSNQNLNYGSDTSSNSDIELNLNKFNDSVKDLKSLETEKDSKLSK
In the case of B1, the binding result is “binds”.
